{
  "source": "the nanobody polyreactivity screen of Harvey et al. (2022)",
  "data": [
    {"experiment": "yeast display, Sf9 membrane polyspecificity reagent, FACS + sequencing; frameworks hold sequencing errors", "in_short": "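Nanobodies came from a synthetic yeast display library in Saccharomyces cerevisiae BJ5465, induced with galactose for 36–48 hours and stained for 1 hour at 4 °C with 10% biotinylated, detergent-solubilized Sf9 membrane reagent. Cells were enriched on streptavidin microbeads and then FACS-sorted, with low and high (top ~1%) gates set on anti-HA fluorescence for expression and streptavidin fluorescence for reagent binding. Each polyreactivity label reflects the gate a clone came from. Genes were amplified by colony PCR, sequenced by MiSeq 2 × 250 and filtered by CDR length.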", "values": [
      {"sequence": "QVQLVESGGGLVQAGGSLRLSCAASGSTFRYNAMGWYRQAPGKERELVAAITSGGTTNYADSVKGRFTISRDNAKNTVYLQMNSLKPEDTAVYYCAKKRPGFLRYGSIGEFQYDYWGQGTQVTVSS", "polyreactivity (PSR sort gate)": "low polyreactivity"},
      {"sequence": "QVQLVESGGGLVQAGGSLRLSCAASGSTFRYNAMGWYRQAPGKERELVASINRGGGGTYYADSVKGRFTISRDNAKKTVYLQMNSLKPEDTAVYYCAKARFTRGTWFYYWGQGTQVTVSS", "polyreactivity (PSR sort gate)": "high polyreactivity"},
      {"sequence": "QVQLVESGGGLVQAGGSLRLSCAASGSTFRYNAMGWYRQAPGKERELVASITWSGGDTYYADSVKGRFTISRDNAKNTVYLQMNSLKPEDTAVYYCAKKGYASRYFIYDYWGQGTQVTVSS", "polyreactivity (PSR sort gate)": "low polyreactivity"},
      {"sequence": "QVQLVESGGGLVQAGGSLRLSCAASGSTFRYNTMGWYRQAPGKEREFVAAISQSGGSTYYADSVKGRFTISRDNAKNTVYLQMNSLKPEDTAVYYCNARPFYATYRYRGYSWGQGTQVTVSS", "polyreactivity (PSR sort gate)": "high polyreactivity"},
      {"sequence": "QVQLVESGGGLVQAGGSLRLSCAASGSTFRYNTMGWYRQAPGKERELVAAINISSSSTYYADSVKGRFTISRDNAKNTVYLQMNSLKPEDTAVYYCANRDYVPIATDENDDYWGQGTQVTVSS", "polyreactivity (PSR sort gate)": "low polyreactivity"},
      {"sequence": "QVQLVESGGGLVQAGGSLRLSCAASGSTFRYYAKGWYRQAPGKERELVAAIAAGSNTNYADSVKGRFTISRDNAKNTVYLQMNSVKPEDTAVFYCAVASYARVQYEYWGQGTQVTVNS", "polyreactivity (PSR sort gate)": "low polyreactivity"},
      {"sequence": "QVQLVESGGGLVQAGGSLRLSCAASGSTFRYYAMAWYREAPGKERELVAAISRRGGSTYYADSVKGRFTISRDNAKNTVYLQMNSLIPEDTAVYYCNAAASTFTSWIRGPGVCYDYWGQGTQVTVSS", "polyreactivity (PSR sort gate)": "high polyreactivity"},
      {"sequence": "QVQLVESGGGLVQAGGSLRLSCAASGSTFRYYAMGWYRHAPGKDRELVAAISGSGGRTYYADSVKGRFTISRDNAKNTVYLQMNSLKPEDTAVYYCNTRGRRTDYDYWGQGTQVTVSS", "polyreactivity (PSR sort gate)": "high polyreactivity"},
      {"sequence": "QVQLVESGGGLVQAGGSLRLSCAASGSTFRYYAMGWYRQAPGKEREFVAAISWSGSSTYYADSVKGRFTISRDNAKNTVYLQMNSLKPEDTAVYYCAARYRYRSSSYDYWGQGTQVTVSS", "polyreactivity (PSR sort gate)": "high polyreactivity"},
      {"sequence": "QVQLVESGGGLVQAGGSLRLSCAASGSTFRYYAMGWYRQAPGKERELVAAINSGGSTYYADSVKGRFTISRDNAKNTVYLQMNSLKPEDTAVYYCAAYYFWYLYWGQGTQVTVSS", "polyreactivity (PSR sort gate)": "high polyreactivity"},
      {"sequence": "QVQLVESGGGLVQAGGSLRLSCAASGSTFRYYAMGWYRQAPGKERELVAAITRGDSTNYADSVKGRFTISRDNAKNTVYLQMNSLKPEDTAVYYCNAGDGPDEEYDYWGQGTQVTVSS", "polyreactivity (PSR sort gate)": "low polyreactivity"},
      {"sequence": "QVQLVESGGGLVQAGGSLRLSCAASGSTFRYYVMGWYRQAPGKERELVARITSAASTNYADSVKGRFTISRDNAKNTVYLQMNSLKPEDTAVYYCAARKYGSRYRLKYDYWGQGTQVTVSS", "polyreactivity (PSR sort gate)": "high polyreactivity"},
      {"sequence": "QVQLVESGGGLVQAGGSLRLSCAASGSTFSANAMGWYRQAPGKERELVAAITYRGGNTYYADSVKGRFTISRDNAKNTVYLQLNSLKPEDTAVYYCNRDLRVRYRRLKYGYWGQGTQVTVSS", "polyreactivity (PSR sort gate)": "low polyreactivity"},
      {"sequence": "QVQLVESGGGLVQAGGSLRLSCAASGSTFSANAMGWYRQAPGKERELVADISTGGSTKYADSVKGRFTISRDNAKNTVYLQMNSLKPEDTAVYYCAARRRWARGSAIRGYWGQGTQVTVSS", "polyreactivity (PSR sort gate)": "high polyreactivity"},
      {"sequence": "QVQLVESGGGLVQAGGSLRLSCAASGSTFSANTKGWYRQAPGTERELVAGITNTGDTYYADSVKGRFTISRDNAKNTVYLQMNSLKPEDTAVYYCAADSWRRTDGAYWSTVYYWGQGTQVTVSS", "polyreactivity (PSR sort gate)": "low polyreactivity"},
      {"sequence": "QVQLVESGGGLVQAGGSLRLSCAASGSTFSDNAMGGYRQAPGKERELVAAINETGGSTYYADSVKGRFTISRDNAKNTVYLQMNSLKPEDTAVYYCNADIDPYGATYAIEYDYWGQGTQVTVSS", "polyreactivity (PSR sort gate)": "low polyreactivity"},
      {"sequence": "QVQLVESGGGLVQAGGSLRLSCAASGSTFSDNAMGWYRQAPGKEREFVAAINETGGSTYYADSVKGRFTISRDNAKNTVYVQMNSLKPEDTAVYYCNADIDPYGATYAIEYDYWGQGTQVTVSS", "polyreactivity (PSR sort gate)": "low polyreactivity"},
      {"sequence": "QVQLVESGGGLVQAGGSLRLSCAASGSTFSDNAMGWYRQAPGKERELVAAITSGGSTYYADSVKGRFTISRDNAKNTVYLQMNSLKPEDTAVYYCAADYWGQGTQVTVSS", "polyreactivity (PSR sort gate)": "low polyreactivity"},
      {"sequence": "QVQLVESGGGLVQAGGSLRLSCAASGSTFSDYAMGWYRQAPGKERELVAAISRRGGSTYYADSVKGRFTISRDNAKNTVYLQMNSLKPEDTAVYYCAKAAYPWTRMEYWGQGTQVTVSS", "polyreactivity (PSR sort gate)": "high polyreactivity"},
      {"sequence": "QVQLVESGGGLVQAGGSLRLSCAASGSTFSDYVMGWYRQAPGKERELVAAISWSGDRTYYADSVKGRFTISRDNAKNTFYLQMNSLKPEDTAVYYCAAEYAPSDPSYYYGYDYWGQGTQVTVSS", "polyreactivity (PSR sort gate)": "high polyreactivity"},
      {"sequence": "QVQLVESGGGLVQAGGSLRLSCAASGSTFSENAMGWYRQAPGKERELVAAISWGGGSTYYADSVKGRFTISRDYAKNTVYLQMNSLKPEDTAVYYCNADVFDDYGYFESDYWGQGTQVTVSS", "polyreactivity (PSR sort gate)": "low polyreactivity"},
      {"sequence": "QVQLVESGGGLVQAGGSLRLSCAASGSTFSFNAMGWYRQAPGKERELVAAIRWSGGSTYYADSVKGRFTISRDNAKNTVYLQMNSLKPEDTAVYYCATYWKGGRPPYRYYYWGQGTQVTVSS", "polyreactivity (PSR sort gate)": "high polyreactivity"},
      {"sequence": "QVQLVESGGGLVQAGGSLRLSCAASGSTFSFNDMGWYRQAPGKERELVADISWSGDTTYADSVKGRFTISRDNAKKTVYLQMNSLKPEDTGVYYCDADRHRYQGYTYDYWGQGTQVTVSS", "polyreactivity (PSR sort gate)": "high polyreactivity"},
      {"sequence": "QVQLVESGGGLVQAGGSLRLSCAASGSTFSFYAMGWYRQAPGKERELVAAIRAGTRTYYADSVKGRFTISRDNAKNTVYLQMNSLKPEDTAVYYCAATRRRYPYYYWGQGTQVTVSS", "polyreactivity (PSR sort gate)": "high polyreactivity"},
      {"sequence": "QVQLVESGGGLVQAGGSLRLSCAASGSTFSGYAMGWYRQAPGKEREFVATISISGGSTYYADSVKGRFTISRDNAKNTVYLQMNSLKPEDTAVYYCNADYYFSWGSIVDYWGQGTQVTVSS", "polyreactivity (PSR sort gate)": "low polyreactivity"},
      {"sequence": "QVQLVESGGGLVQAGGSLRLSCAASGSTFSGYAMGWYRQAPGKERELVAAISYSGGGTYYEDSVKGRFTISRDNAKNTVYLQMNSLKPEDTAVYYCATLGSLRYYWPGYDYWGQGTQVTVSS", "polyreactivity (PSR sort gate)": "low polyreactivity"},
      {"sequence": "QVQLVESGGGLVQAGGSLRLSCAASGSTFSGYAMGWYSQAPGKERELVAAISWSGGRTYYADSVNGRFTISRDNAKNTVYLQMNSLKPEDTAVYYCDAVRKSAYEYWGQGTQVTVSS", "polyreactivity (PSR sort gate)": "high polyreactivity"},
      {"sequence": "QVQLVESGGGLVQAGGSLRLSCAASGSTFSIYAMGWYRQAPGKERELVAAITSDGSTYYADSVKGRFTISRDNAKNTVYLQMNSLKPEDTAVYYCAADWWYGWVSYEYWGQGTQVTVSS", "polyreactivity (PSR sort gate)": "high polyreactivity"},
      {"sequence": "QVQLVESGGGLVQAGGSLRLSCAASGSTFSKNAMGWYRPAPGKERELVAAIRSRGGSTYYADSVKGRFTISRDNAKNTVYLQMNSLKPEDTAVYYCAAQYFWYVYSYDYWGQGTQVTVSS", "polyreactivity (PSR sort gate)": "high polyreactivity"},
      {"sequence": "QVQLVESGGGLVQAGGSLRLSCAASGSTFSKYAMGWYRQAPGKERELEAAITRTGGRTYYADSVKGRFTISRDNANNTVYLQMNSLKPEDTAVYYCAASATFWGQGTQVTVSS", "polyreactivity (PSR sort gate)": "high polyreactivity"},
      {"sequence": "QVQLVESGGGLVQAGGSLRLSCAASGSTFSKYAMGWYRQAPGKERELVAAINYGGTSTYYADSVKGRFTISRDNAKNTVYLQMNSLKPEDTAVYYCAVIYRRLYTGGQNPYDYWGQGTQVTVSS", "polyreactivity (PSR sort gate)": "high polyreactivity"},
      {"sequence": "QVQLVESGGGLVQAGGSLRLSCAASGSTFSKYAMGWYRQAPGKERELVAAISRSGGNTYYADSVKGRFTISRDNAKNTVYLQMNSLKPEDTAVYYCATTLYSYSTGRYRLDYWGQGTQVTVSS", "polyreactivity (PSR sort gate)": "high polyreactivity"}
    ]}
  ]
}
